Data from patent US6858707B1, “Hypersensitive response elicitor fragments which are active but do not elicit a hypersensitive response” (EDEN Bioscience Corporation, priority 1998, dated 2005).
Values joined by “and” are separate entries in the source; they are usually repeats but may differ in a detail not shown here. Identical values can stand only once.

Assays:
[1] = system: tobacco (Nicotiana tabacum v. Xanthi) leaves; assay: Induction of HR in tobacco by hrpN truncated proteins; type: in vivo; conditions: for HR titer: large scale purified protein, concentration down to which HR is elicited in tobacco, — = no HR; for HR elicitation in tobacco (in words): Example 12
Experimental: A 1.5 ml aliquot from the 50 ml cultures grown for small scale purification of the truncated proteins was centrifuged at 14,000 rpm for four minutes and re-suspended in an equal volume of 5 mM potassium phosphate buffer, pH 6.8. The cell suspension was sonicated for ca. 30 seconds then diluted 1:2 and 1:10 with phosphate buffer. Both dilutions plus the neat cell lysate were infiltrated into the fourth to ninth leaves of 10-15 leaf tobacco plants by making a hole in single leaf panes and infiltrating the bacterial lysate into the intercellular leaf space using a syringe without a needle. The HR response was recorded 24-48 hr post infiltration. Tobacco (Nicotiana tabacum v. Xanthi) seedlings were grown in an environmental chamber at 20-25° C. with a photoperiod of 12-h light/12-h dark and ca. 40% RH. Cell lysate was used for the initial HR assays (in order to screen the truncated proteins for HR activity) as the small scale urea purification yielded very little protein which was denatured due to the purification process.
The full length positive control protein elicited HR down to only 5-7 μg/ml. […] This false HR was likely due to an affinity of the imidazole used in the purification process to bind to one or several of the background proteins, thereby not completely dialyzing out.

[2] = system: tomato (Lycopersicon spp. cv. Marglobe); assay: Induction of growth enhancement (GE/PGE), tomato seed soak; type: in vivo; conditions: for PGE ht>buffer @20 μg/ml: tomato seeds soaked overnight at 20 μg/ml; for PGE ht>buffer @20 μg/ml / PGE ht>buffer @10 μg/ml / PGE ht>buffer @ 40 μg/ml: height vs buffer control; for PGE ht>buffer @20 μg/ml / PGE ht>buffer @10 μg/ml: >10% needed to pass; for PGE ht>buffer @10 μg/ml: tomato seeds soaked overnight at 10 μg/ml
Experimental: Sixty tomato (Lycopersicon spp. cv. […] The next morning, the sixty seeds were sewn in three pots and 12-15 days later and again 18-20 days later the heights of the 10 tallest tomato plants per pot were measured and compared with the heights of the control plants treated only with phosphate buffer. Analyses were done on the heights to determine if there was a significant difference in the height of the plants treated with the truncated proteins compared with the buffer control, and thereby determine whether the proteins induced growth enhancement.

TMV = assay: Induction of systemic acquired resistance (SAR), TMV lesions on tobacco; type: in vivo, Nicotiana tabacum; conditions: tobacco sprayed with 20 μg/ml, reduction in TMV lesions vs buffer control
Experimental: Three tobacco (Nicotiana tabacum cv. Xanthi) plants with 8-12 leaves (ca. 75 day old plants) were used in the assay. One leaf of the tobacco plants was covered up and the rest of the leaves were sprayed with ca. 50 ml of a 20 μg/ml solution of the truncated proteins diluted with 5 mM potassium phosphate buffer. Five to seven days later two leaves (the unsprayed leaf and the sprayed leaf opposite and just above the unsprayed leaf) were inoculated with 20 μl of a 1.8 μg/ml solution of TMV along with a pinch of diatomaceous earth by rubbing the mixture along the top surface of the leaves. The TMV entered the plants through tiny lesions made by the diatomaceous earth. Ca. 3-4 days post TMV inolucation, the number of TMV lesions was counted on both leaves compared with the number of lesions on the negative control buffer treated leaves. Analyses were done to determine the efficacy of reducing the number of TWV lesions by the protein fragents compared to the buffer control. Percentage of efficacy was calculated as: Reduction in TMV lesions (% efficacy)=100×(1−mean # of lesions on treated leaves/mean # of lesions on buffer control leaves).

Molecule | HR titer [1] | PGE ht>buffer @20 μg/ml [2] | PGE ht>buffer @10 μg/ml [2] | other results
Fragment 20: amino acids 137-180 of SEQ ID NO: 23, smallest HR domain (STSQNDDSTSGTDSTSDSSDPMQQLLKMFSEIMQSLFGDGQDGT; listed as Erwinia amylovora) | 16 µg/mL | 9% |  | Efficacy of TMV control (TMV; listed as 20): 64% and 58%
c1c[nH]cn1 [Imidazole] |  |  |  | false HR response ([1]; imidazole at ca. 60 mM): did elicit a false HR response
Fragment 1: full length Erwinia amylovora hypersensitive response elicitor, amino acids 1-403 of SEQ ID NO: 23, pET28(b) clone, positive control (protein, listed as Erwinia amylovora) MSLNTSGLGASTMQISIGGAGGNNGLLGTSRQNAGLGGNSALGLGGGNQNDTVNQLAGLLTGMMMMMSMMGGGGLMGGGLGGGLGNGLGGSGGLGEGLSNALNDMLGGSLNTLGSKGGNNTTSTTNSPLDQALGINSTSQNDDSTSGTDSTSDSSDPMQQLLKMFSEIMQSLFGDGQDGTQGSSSGGKQPTEGEQNAYKKGVTDALSGLMGNGLSQLLGNGGLGGGQGGNAGTGLDGSSLGGKGLQNLSGPVDYQQLGNAVGTGIGMKAGIQALNDIGTHRHSSTRSFVNKGDRAMAKEIGQFMDQYPEVFGKPQYQKGPGQEVKTDDKSWAKALSKPDDDGMTPASMEQFNKAKGMIKRPMAGDTGNGNLQARGAGGSSLGIDAMMAGDAINNMALGKLGAA | 5 to 7 µg/mL | 11% | 12% | Efficacy of TMV control (TMV; listed as 1 (+control)): 84% and 72%
Fragment 14: amino acids 76-168 of SEQ ID NO: 23, internal fragment (protein, listed as Erwinia amylovora) MGGGLGGGLGNGLGGSGGLGEGLSNALNDMLGGSLNTLGSKGGNNTTSTTNSPLDQALGINSTSQNDDSTSGTDSTSDSSDPMQQLLKMFSEI |  | 20% | 18% | HR elicitation in tobacco (in words) [1]: lost its HR activity; Efficacy of TMV control (TMV; listed as 14): 83% and 87%
Fragment 17: amino acids 105-168 of SEQ ID NO: 23, internal fragment (protein, listed as Erwinia amylovora) MLGGSLNTLGSKGGNNTTSTTNSPLDQALGINSTSQNDDSTSGTDSTSDSSDPMQQLLKMFSEI |  | 16% | 19% | HR elicitation in tobacco (in words) [1]: lost its HR activity; Efficacy of TMV control (TMV): 89%
Fragment 5: amino acids 210-403 of SEQ ID NO: 23, C-terminal fragment (protein, listed as Erwinia amylovora) MGNGLSQLLGNGGLGGGQGGNAGTGLDGSSLGGKGLQNLSGPVDYQQLGNAVGTGIGMKAGIQALNDIGTHRHSSTRSFVNKGDRAMAKEIGQFMDQYPEVFGKPQYQKGPGQEVKTDDKSWAKALSKPDDDGMTPASMEQFNKAKGMIKRPMAGDTGNGNLQARGAGGSSLGIDAMMAGDAINNMALGKLGAA |  | 14% | 13% | HR elicitation in tobacco (in words) [1]: did not elicit HR at a detectable level; PGE ht>buffer @ 40 μg/ml [2]: 16% @ 40 μg/ml; Efficacy of TMV control (TMV; listed as 5): 77% and 78%
Fragment 4: amino acids 169-403 of SEQ ID NO: 23, C-terminal fragment (protein, listed as Erwinia amylovora) MQSLFGDGQDGTQGSSSGGKQPTEGEQNAYKKGVTDALSGLMGNGLSQLLGNGGLGGGQGGNAGTGLDGSSLGGKGLQNLSGPVDYQQLGNAVGTGIGMKAGIQALNDIGTHRHSSTRSFVNKGDRAMAKEIGQFMDQYPEVFGKPQYQKGPGQEVKTDDKSWAKALSKPDDDGMTPASMEQFNKAKGMIKRPMAGDTGNGNLQARGAGGSSLGIDAMMAGDAINNMALGKLGAA |  | 12% | 9% | HR elicitation in tobacco (in words) [1]: did not elicit HR; Efficacy of TMV control (TMV; listed as 4): 64% and 79%
Fragment 13: amino acids 76-209 of SEQ ID NO: 23, internal fragment (protein, listed as Erwinia amylovora) MGGGLGGGLGNGLGGSGGLGEGLSNALNDMLGGSLNTLGSKGGNNTTSTTNSPLDQALGINSTSQNDDSTSGTDSTSDSSDPMQQLLKMFSEIMQSLFGDGQDGTQGSSSGGKQPTEGEQNAYKKGVTDALSGL | 5 µg/mL | 4% | 7% | PGE ht>buffer @ μg/ml ([2]; concentration figure missing in the cell): 18% @ μg/ml; enhanced growth at 60 μg/ml ([2]; tomato, 60 μg/ml): 18%; Efficacy of TMV control (TMV; listed as 13): 44% and 84%
Fragment 9: amino acids 1-104 of SEQ ID NO: 23, N-terminal fragment (protein, listed as Erwinia amylovora) MSLNTSGLGASTMQISIGGAGGNNGLLGTSRQNAGLGGNSALGLGGGNQNDTVNQLAGLLTGMMMMMSMMGGGGLMGGGLGGGLGNGLGGSGGLGEGLSNALND | 3 µg/mL | 8% | 4% | Efficacy of TMV control (TMV): 82%
Fragment 10: amino acids 1-168 of SEQ ID NO: 23, N-terminal fragment (protein, listed as Erwinia amylovora) MSLNTSGLGASTMQISIGGAGGNNGLLGTSRQNAGLGGNSALGLGGGNQNDTVNQLAGLLTGMMMMMSMMGGGGLMGGGLGGGLGNGLGGSGGLGEGLSNALNDMLGGSLNTLGSKGGNNTTSTTNSPLDQALGINSTSQNDDSTSGTDSTSDSSDPMQQLLKMFSEI | 1 µg/mL | 5% | 13% | Efficacy of TMV control (TMV): 69%
Fragment 15: amino acids 105-209 of SEQ ID NO: 23, internal fragment (protein, listed as Erwinia amylovora) MLGGSLNTLGSKGGNNTTSTTNSPLDQALGINSTSQNDDSTSGTDSTSDSSDPMQQLLKMFSEIMQSLFGDGQDGTQGSSSGGKQPTEGEQNAYKKGVTDALSGL | 5 to 10 µg/mL | 19% | 14% | Efficacy of TMV control (TMV; listed as 15): 57% and 67%
Fragment 19: amino acids 137-204 of SEQ ID NO: 23, internal fragment (protein, listed as Erwinia amylovora) STSQNDDSTSGTDSTSDSSDPMQQLLKMFSEIMQSLFGDGQDGTQGSSSGGKQPTEGEQNAYKKGVTD | 3.5 µg/mL | 13% | 11% | Efficacy of TMV control (TMV; listed as 19): 89% and 77%
Fragment 6: amino acids 267-403 of SEQ ID NO: 23, C-terminal fragment (protein, listed as Erwinia amylovora) MKAGIQALNDIGTHRHSSTRSFVNKGDRAMAKEIGQFMDQYPEVFGKPQYQKGPGQEVKTDDKSWAKALSKPDDDGMTPASMEQFNKAKGMIKRPMAGDTGNGNLQARGAGGSSLGIDAMMAGDAINNMALGKLGAA |  | 21% | 21% | PGE ht>buffer @ 40 μg/ml [2]: 23% @ 40 μg/ml; Efficacy of TMV control (TMV; listed as 6): 70% and 72%
Fragment 7: amino acids 343-403 of SEQ ID NO: 23, smallest C-terminal protein (protein, listed as Erwinia amylovora) MTPASMEQFNKAKGMIKRPMAGDTGNGNLQARGAGGSSLGIDAMMAGDAINNMALGKLGAA |  | 7% | 7% | 
